Each block holds one binder with its values, some of them ahead of it.
Columns and labels:
[1] = target: T1, cyno IL-13 (cynomolgus, UniProt Q0PW92 21-132); assay: SPR Biacore T100; captured on Protein A (CM5), cyno IL13 analyte; 'Impossible off-rates', beyond sensitivity
T1 construct: also called cynomolgus IL-13
Method: (§1) All binding curves were double referenced with a OnM injection (i.e. buffer alone).
(§2) Regeneration of the Protein A surface was with 50 mM NaOH. The assay was run at 25° C. using HBS-EP as running buffer. The data was fitted to 1:1 model inherent to the Biacore T100 analysis software.

[2] = target: T2, human IL-13 (human, UniProt P35225 35-146); assay: cell-based or functional assay
[3] = target: T2, human IL-13; assay: cell-based or functional assay; remark: listed apart in the source
[4] = target: T3, human IL-4 (human, UniProt P05112 25-153); assay: SPR Biacore T100; mAbdAb captured on Protein A (CM5), human IL4 analyte
T3 construct: also called recombinant E. coli-expressed human IL-4
T3 sequence (looked up): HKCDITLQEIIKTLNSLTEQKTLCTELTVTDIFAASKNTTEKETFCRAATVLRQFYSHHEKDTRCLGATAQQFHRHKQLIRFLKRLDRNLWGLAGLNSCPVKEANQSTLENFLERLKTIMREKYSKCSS
Method: as §1, §2

[5] = target: T3, human IL-4; assay: SPR Biacore T100; captured on Protein A (CM5), human IL4 analyte; footnote: on- and off-rate not measurable

T2 sequence (P35225 other isoform, or with tags, fused parts or gaps limits assumed): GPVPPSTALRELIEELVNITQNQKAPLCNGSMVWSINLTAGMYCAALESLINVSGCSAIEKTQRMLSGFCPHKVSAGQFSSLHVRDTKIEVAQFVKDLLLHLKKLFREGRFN
T1 sequence (Q0PW92 entry or part of it): as the sequence (P35225 other isoform, or with tags, fused parts or gaps limits assumed) above, with G1S, R10K, M42V, S67N, H83R, L100V, R110Q counted along it

B2: A1L1 (antibody, human IgG1, kappa, V domains shown)
VH: QVQLVQSGAEVKKPGSSVKVSCKASGFYIKDTYMHWVRQAPGQGLEWMGTIDPANGNTKYVPKFQGRVTITADESTSTAYMELSSLRSEDTAVYYCARSIYDDYHYDDYYAMDYWGQGTLVTVSS
VL: DIVMTQSPLSLPVTPGEPASISCRSSQNIVHINGNTYLEWYLQKPGQSPRLLIYKISDRFSGVPDRFSGSGSGTDFTLKISRVEADDVGIYYCFQGSHVPWTFGQGTKLEIKR
- ND50 human IL-13, TF-1 cell proliferation bioassay [2]: 2.52 nM
- Mean ND50, TF-1 cell proliferation bioassay [3]: 5.01 nM

B3: BPC1086 (bispecific antibody, human IgG1, kappa)
heavy: not shown
light: DIVMTQSPLSLPVTPGEPASISCRSSQNIVHINGNTYLEWYLQKPGQSPRLLIYKISDRFSGVPDRFSGSGSGTDFTLKISRVEADDVGIYYCFQGSHVPWTFGQGTKLEIKRTVAAPSVFIFPPSDEQLKSGTASVVCLLNNFYPREAKVQWKVDNALQSGNSQESVTEQDSKDSTYSLSSTLTLSKADYEKHKVYACEVTHQGLSSPVTKSFNRGEC
- Mean ND50, TF-1 cell proliferation bioassay [3]: 1.01 nM

Further lines, results first:

- Kd [1]: 0.0158 nM
- koff [1]: 5.07e-06 s⁻¹
B1: BPC3214 (bispecific antibody, human IgG1, kappa)
heavy: not shown
light: DIQMTQSPSSLSASVGDRVTITCRSSQNIVHINGNTYLEWYQQKPGKAPKLLIYKISDRFSGVPSRFSGSGSGTDFTLTISSLQPEDFATYYCFQGSHVPWTFGQGTKLEIKRTVAAPSVFIFPPSDEQLKSGTASVVCLLNNFYPREAKVQWKVDNALQSGNSQESVTEQDSKDSTYSLSSTLTLSKADYEKHKVYACEVTHQGLSSPVTKSFNRGEC

- Kd [4]: 0.055 nM
- koff [4]: 0.000211 s⁻¹
- kon [4]: 3.84e+06 M⁻¹ s⁻¹
B4: BPC1093 (bispecific antibody, human IgG1, kappa)
heavy: not shown
light: DIVMTQSPLSLPVTPGEPASISCRSSQNIVHINGNTYLEWYLQKPGQSPRLLIYKISDRFSGVPDRFSGSGSGTDFTLKISRVEADDVGIYYCFQGSHVPWTFGQGTKLEIKRTVAAPSVFIFPPSDEQLKSGTASVVCLLNNFYPREAKVQWKVDNALQSGNSQESVTEQDSKDSTYSLSSTLTLSKADYEKHKVYACEVTHQGLSSPVTKSFNRGEC
notes: also called 829H-(TVAAPS)2GS-154 (89M)

- kon [5]: 1.14e+08 M⁻¹ s⁻¹
B5: BPC1112 (bispecific antibody, human IgG1, kappa)
heavy: not shown
light: DIVMTQSPLSLPVTPGEPASISCRSSQNIVHINGNTYLEWYLQKPGQSPRLLIYKISDRFSGVPDRFSGSGSGTDFTLKISRVEADDVGIYYCFQGSHVPWTFGQGTKLEIKRTVAAPSVFIFPPSDEQLKSGTASVVCLLNNFYPREAKVQWKVDNALQSGNSQESVTEQDSKDSTYSLSSTLTLSKADYEKHKVYACEVTHQGLSSPVTKSFNRGEC
notes: also called 829H-(TVAAPS)2GS-154 (89K)
